Holding throughout (conditions): both partners purified
In test [1] the target is T1, IQGAP1 GRD1-CT (aa 863-1657) (human, UniProt P46940 863-1657).
T1 construct: human IQGAP1, GRD, RGCT and CT domains, aa 863-1657; The GST tag was cleaved 'if needed'; also called C-terminal half of IQGAP1; C-terminal 795 amino acids of IQGAP1
T1 sequence (looked up): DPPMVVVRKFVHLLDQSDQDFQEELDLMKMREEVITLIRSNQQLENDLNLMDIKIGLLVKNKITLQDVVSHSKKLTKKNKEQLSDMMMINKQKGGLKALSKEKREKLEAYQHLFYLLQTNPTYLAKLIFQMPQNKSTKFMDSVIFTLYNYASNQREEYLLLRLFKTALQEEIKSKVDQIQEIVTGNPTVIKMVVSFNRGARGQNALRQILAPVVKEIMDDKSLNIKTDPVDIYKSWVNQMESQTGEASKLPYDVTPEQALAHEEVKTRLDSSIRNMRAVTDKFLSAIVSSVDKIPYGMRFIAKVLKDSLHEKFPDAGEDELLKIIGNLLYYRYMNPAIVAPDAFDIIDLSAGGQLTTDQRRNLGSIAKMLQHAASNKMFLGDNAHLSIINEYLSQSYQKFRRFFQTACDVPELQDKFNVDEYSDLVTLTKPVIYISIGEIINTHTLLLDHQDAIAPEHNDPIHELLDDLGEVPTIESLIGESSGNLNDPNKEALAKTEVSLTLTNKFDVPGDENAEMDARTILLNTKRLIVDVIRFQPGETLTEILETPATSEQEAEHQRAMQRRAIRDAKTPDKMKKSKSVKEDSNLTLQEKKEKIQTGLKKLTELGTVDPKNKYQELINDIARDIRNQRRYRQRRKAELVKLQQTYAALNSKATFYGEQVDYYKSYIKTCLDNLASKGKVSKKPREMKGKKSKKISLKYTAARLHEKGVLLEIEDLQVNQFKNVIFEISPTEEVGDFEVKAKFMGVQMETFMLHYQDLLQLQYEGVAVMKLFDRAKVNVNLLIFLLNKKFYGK
The experiment in a line: fluorescence polarisation; IQGAP1 variant titrated to mGDP-bound (inactive) RHO protein (1 μM), same conditions as with mGppNHp; 30 mM Tris/HCl pH 7.5, 150 mM NaCl, 5 mM MgCl2, 3 mM DTT, 25 °C.

Test [2] has as its target T1, IQGAP1 GRD1-CT (aa 863-1657). The experiment in a line: stopped-flow fluorometry; mGppNHp-bound RHO protein (0.2 μM) rapidly mixed with IQGAP1 variant (2 μM, or 2-12 μM for kon); koff by displacement with 10 μM non-fluorescent GppNHp-bound GTPase; Kd = koff/kon; 30 mM Tris-HCl pH 7.5, 10 mM KH2PO4/K2HPO4, 5 mM MgCl2, 3 mM DTT.
For test [3], the target named is T2, IQGAP1 GRD1-RGCT S1441E (aa 877-1558) (human, UniProt P46940 877-1558, S1441E).
T2 construct: human IQGAP1 aa 877-1558 with the phosphomimetic mutation S1441E, from the vector pET46 EkLIC; source: E. coli (pLysS BL21(DE3), CodonPlusRIL or BL21(Rosetta)), purified (Ni-NTA, gel filtration)
T2 sequence (looked up): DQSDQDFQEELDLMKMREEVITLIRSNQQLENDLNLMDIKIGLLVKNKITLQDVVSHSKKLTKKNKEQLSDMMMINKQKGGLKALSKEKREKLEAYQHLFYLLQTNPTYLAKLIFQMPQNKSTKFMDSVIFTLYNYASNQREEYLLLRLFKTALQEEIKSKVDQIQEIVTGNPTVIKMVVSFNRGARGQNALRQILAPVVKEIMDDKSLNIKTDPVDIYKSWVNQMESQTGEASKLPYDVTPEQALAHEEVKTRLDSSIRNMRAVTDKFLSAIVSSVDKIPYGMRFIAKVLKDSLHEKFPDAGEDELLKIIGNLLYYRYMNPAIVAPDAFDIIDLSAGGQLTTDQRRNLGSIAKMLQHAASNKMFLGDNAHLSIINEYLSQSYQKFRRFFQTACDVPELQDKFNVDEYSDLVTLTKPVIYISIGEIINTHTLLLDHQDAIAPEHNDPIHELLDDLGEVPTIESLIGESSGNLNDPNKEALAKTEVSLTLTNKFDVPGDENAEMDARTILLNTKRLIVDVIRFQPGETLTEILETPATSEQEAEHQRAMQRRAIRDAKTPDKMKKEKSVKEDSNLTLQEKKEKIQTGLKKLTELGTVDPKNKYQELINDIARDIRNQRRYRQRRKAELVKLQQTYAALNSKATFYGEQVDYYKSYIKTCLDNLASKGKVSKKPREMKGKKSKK
The description is as above.

B1: CDC42 (aa 1-178) (domain or fragment)
chain: not shown
notes: human CDC42, C-terminally truncated, aa 1-178; Loaded non-covalently with mGppNHp, tGppNHp, mGDP or non-fluorescent GppNHp; the nucleotide is named in the format of each assay; also called CDC42^WT; CDC42-mGppNHp
Regarding B1, the results for the dissociation constant (Kd) in test [1], in test [2] and in test [3] were 95.1 µM, 0.3 µM and 2.05 µM, respectively.

The values are drawn from publication PMC5159498, “IQGAP1 Interaction with RHO Family Proteins Revisited” (The Journal of Biological Chemistry, 2016).
